Assay results published in article PMC7192597, “Mechanistic insights from structure of Mycobacterium smegmatis topoisomerase I with ssDNA bound to both N- and C-terminal domains”.

Tests used:
[1] = molecular target: T1, MsmTOP1 full length (topoisomerase I) (Mycobacterium smegmatis mc2 155, UniProt A0R5D9 1-936); experiment: fluorescence anisotropy; Kd could not be determined; no Mg2+, 0.1 mM EDTA; Anisotropy: 50 mM Tris-HCl pH 7.5, 100 mM NaCl, 0.1 mM EDTA, room temperature; crystal: 0.1 M Tris-HCl pH 8.5, 1.5 M lithium sulfate, 16 C, protein:ssDNA 1:2; conditions: protein: recombinant; tags: His6-Mocr removed by TEV (N-terminal SNA left); label: 3' 6-carboxyfluorescein; single strand
T1 sequence: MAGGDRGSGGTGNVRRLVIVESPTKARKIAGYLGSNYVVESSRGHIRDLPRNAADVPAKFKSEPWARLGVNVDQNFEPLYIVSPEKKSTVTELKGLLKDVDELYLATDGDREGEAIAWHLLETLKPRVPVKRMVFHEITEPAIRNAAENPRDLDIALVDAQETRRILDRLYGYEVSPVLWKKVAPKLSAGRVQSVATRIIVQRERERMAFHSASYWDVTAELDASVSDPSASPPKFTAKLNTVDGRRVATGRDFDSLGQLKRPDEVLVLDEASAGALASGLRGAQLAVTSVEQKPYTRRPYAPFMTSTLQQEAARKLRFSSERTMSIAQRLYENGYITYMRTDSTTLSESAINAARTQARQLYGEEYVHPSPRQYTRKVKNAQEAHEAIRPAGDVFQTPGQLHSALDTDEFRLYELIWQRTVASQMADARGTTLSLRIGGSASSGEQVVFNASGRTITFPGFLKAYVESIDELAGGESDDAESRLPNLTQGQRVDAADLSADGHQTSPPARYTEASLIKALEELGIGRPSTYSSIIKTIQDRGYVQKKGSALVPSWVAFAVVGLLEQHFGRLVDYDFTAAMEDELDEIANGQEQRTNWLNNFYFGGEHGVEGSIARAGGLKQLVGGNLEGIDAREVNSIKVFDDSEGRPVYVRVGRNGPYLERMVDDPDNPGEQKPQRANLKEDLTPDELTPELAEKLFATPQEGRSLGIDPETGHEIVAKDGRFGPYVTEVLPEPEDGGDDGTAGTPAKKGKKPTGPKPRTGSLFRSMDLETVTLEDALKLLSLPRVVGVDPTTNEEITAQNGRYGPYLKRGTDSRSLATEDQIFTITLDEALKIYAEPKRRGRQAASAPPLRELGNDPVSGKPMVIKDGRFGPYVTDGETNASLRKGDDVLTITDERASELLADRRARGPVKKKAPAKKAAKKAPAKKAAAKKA

[2] = molecular target: T2, MsmTOP1-839t (D1-D7) (Mycobacterium smegmatis mc2 155, UniProt A0R5D9 1-839); experiment: X-ray crystallography (3.1 A); no metal ion at active site; ssDNA at both N-terminal and D6-D7 domains; Anisotropy: 50 mM Tris-HCl pH 7.5, 100 mM NaCl, 0.1 mM EDTA, room temperature; crystal: 0.1 M Tris-HCl pH 8.5, 1.5 M lithium sulfate, 16 C, protein:ssDNA 1:2; conditions: protein: recombinant; tags: His6-Mocr removed by TEV (N-terminal SNA left); single strand; in crystal two copies pair through 5' regions (12 bp, six non-Watson-Crick pairs/mismatches)
T2 sequence: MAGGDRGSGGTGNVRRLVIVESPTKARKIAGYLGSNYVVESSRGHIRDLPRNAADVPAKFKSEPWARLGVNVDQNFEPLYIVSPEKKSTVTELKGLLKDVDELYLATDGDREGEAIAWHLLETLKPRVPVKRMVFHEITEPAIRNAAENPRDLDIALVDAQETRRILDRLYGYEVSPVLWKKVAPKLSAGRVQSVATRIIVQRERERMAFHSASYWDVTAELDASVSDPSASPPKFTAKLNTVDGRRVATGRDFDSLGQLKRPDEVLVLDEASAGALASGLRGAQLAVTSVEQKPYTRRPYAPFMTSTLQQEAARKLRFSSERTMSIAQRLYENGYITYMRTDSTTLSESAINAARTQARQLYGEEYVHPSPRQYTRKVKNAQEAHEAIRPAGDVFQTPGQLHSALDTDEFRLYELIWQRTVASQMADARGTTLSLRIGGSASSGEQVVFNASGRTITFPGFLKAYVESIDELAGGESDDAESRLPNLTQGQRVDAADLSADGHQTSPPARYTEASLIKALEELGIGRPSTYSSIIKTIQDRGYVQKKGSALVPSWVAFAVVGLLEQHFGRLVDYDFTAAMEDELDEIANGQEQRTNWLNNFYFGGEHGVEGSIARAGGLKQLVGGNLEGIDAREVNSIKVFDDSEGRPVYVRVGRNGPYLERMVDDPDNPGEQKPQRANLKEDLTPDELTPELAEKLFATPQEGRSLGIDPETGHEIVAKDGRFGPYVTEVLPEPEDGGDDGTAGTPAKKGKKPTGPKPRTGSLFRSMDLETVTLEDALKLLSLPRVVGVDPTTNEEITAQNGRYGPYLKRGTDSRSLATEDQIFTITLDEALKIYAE

[3] = molecular target: T1, MsmTOP1 full length (topoisomerase I); experiment: fluorescence anisotropy; no Mg2+, 0.1 mM EDTA; Anisotropy: 50 mM Tris-HCl pH 7.5, 100 mM NaCl, 0.1 mM EDTA, room temperature; crystal: 0.1 M Tris-HCl pH 8.5, 1.5 M lithium sulfate, 16 C, protein:ssDNA 1:2; conditions: protein: recombinant; tags: His6-Mocr removed by TEV (N-terminal SNA left); label: 3' 6-carboxyfluorescein; single strand
[4] = molecular target: T3, MsmTOP1-701t (D1-D5) (Mycobacterium smegmatis mc2 155, UniProt A0R5D9 1-701); experiment: as above; conditions: protein: recombinant; tags: His6-Mocr removed by TEV (N-terminal SNA left); label: 3' 6-carboxyfluorescein; single strand
T3 sequence: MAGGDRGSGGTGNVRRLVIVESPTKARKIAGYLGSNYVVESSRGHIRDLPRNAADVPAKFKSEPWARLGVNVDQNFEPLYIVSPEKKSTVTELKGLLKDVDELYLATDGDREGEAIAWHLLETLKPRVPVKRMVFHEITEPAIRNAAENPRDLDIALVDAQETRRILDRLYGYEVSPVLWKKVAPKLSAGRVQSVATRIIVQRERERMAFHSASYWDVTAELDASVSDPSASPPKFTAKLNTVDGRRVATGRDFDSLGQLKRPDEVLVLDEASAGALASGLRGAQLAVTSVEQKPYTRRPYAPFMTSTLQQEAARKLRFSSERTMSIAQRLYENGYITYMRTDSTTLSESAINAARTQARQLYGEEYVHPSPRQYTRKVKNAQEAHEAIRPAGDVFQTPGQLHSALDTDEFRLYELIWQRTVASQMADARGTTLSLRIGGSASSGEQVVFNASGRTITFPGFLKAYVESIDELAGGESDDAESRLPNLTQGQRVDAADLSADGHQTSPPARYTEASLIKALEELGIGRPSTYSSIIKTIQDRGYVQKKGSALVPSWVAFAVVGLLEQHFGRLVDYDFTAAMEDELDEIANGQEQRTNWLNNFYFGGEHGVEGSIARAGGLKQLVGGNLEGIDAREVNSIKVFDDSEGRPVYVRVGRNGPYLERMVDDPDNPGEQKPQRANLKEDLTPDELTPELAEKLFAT

CTTCCGCTTGACAT (ssDNA) [MTS3-14]: binds [1].

CAGTGAGCGAGCTTCCGCTTGACTT (ssDNA) [MTS2-25]: binds [2].

Work on CAGTGAGCGAGCTTCCGCTTGACATCCCAATA (ssDNA) [STS32] yielded a Kd [3] of 0.3 nM and a Kd [4] of 14.9 nM.
